In a protein production outcome set (Wang et al. 2014) one finds protein production data, which are given here for 20 sequences.

A short description of the data set: label from the status in PepcDB records.

As to “MWTTNIIKTPRGKFEYFLKGEGPPLCVTHLYSEYNDNGNTFANPFTDHYSVYLVNLKGCGNSDSAKNDSEYSMTETIKDLEAIREALYINKWGFAGHSAGGMLALVYATEAQESLTKIIVGGAAASKEYASHKDSIYCSKNVKFNRIVSIMNALNDDSTVQEERKALSREWALMSFYSEEKLEEALKLPNSGKTVGNRLNYFRQVEYKDYDVRQKLKFVKIPSFIYCGKHDVQCPYIFSCEIANLIPNATLTKFEESNHNPFVEEIDKFNQFVNDTL”, the protein production entry is reported as “not failed”.
In the case of “MWVKPLREASQGKKEEEIHIKTSSSSSARSLAPLLVLKLIRSLSSSSARLQASQLVLKLLCSSSSSSACPQALQLALKLLCWSSSSSTGPQAPQLVFKLSSSSLSSARLQAPPLNDHLLA” it was “failed”; in that of “MWVWNMVEIKIVFGSSENMEEIPDNSVHLVVTSPPYYNAPFDFPGLFSSYEEYLNLLRKVGKELMRVLQPGRYACFVTQDVRIEGKLYPIVSDLIHIMVHELGFEYQDKIIWRKPEGYIRISRRSGVLIQHPYPMYYYPDNIYEEVVIFKKPGKFDRSAVPPEIREKSKISISKFQAEKWYLSVWDIKNVLPHEKWSKYTAPFPEELAERLIRLYSYVGETVLDPFLGSGTTCVVSRKLHRNCIGYEIDLELREIIEERLG”, “failed”; in that of “MYEFNLVLLLLQQMCVFLVIAWLMSKTRLFIPLMQVTVRLPHKLLCYVTFSIFCIMGTYFGLHIEDSIANTRAIGAVMSGLLGGPVVGGLVGLTGGLHRYSMGGMTALSCMISTIVEGLLGGLVHSVLIRRGRPDKVFSPLTAGAITCVAELVQMLIILLIARPFDDALHLVSNIAAPMMVTNTVGAALFMRILLDKRAMFEKYTSAFSATALKVAASTEGILRQGFNEVNSMKVAQVLYQELDIGAVAITDREKLLAFTGIGDDHHLPGKPISSGYTLKAIETGEVVYADGNEVPYRCSLHPQCKLGSTLVIPLRGENQRVMGTIKLYEAKNRLFSSINRTLGEGIAQLLSAQILAGQYERQKALLTQSEIKLLHAQVNPHFLFNALNTIKAVIRRDSEQASQLVQYLSTFFRKNLKRPSEIVTLADEIEHVNAYLQIEKARFQSRLQVQLDVPSTLSRQKLPAFTLQPIVENAIKHGTSQLLDTGNVAIRARREGQHLMLDIEDNAGLYQPSAGSSGLGMSLVDKRLREHFGDDYGISVACEPDCFTRITLRLPLEEDA”, “failed”.
In the case of “MYFDSHLHSEGLGFSELVKLKENGIKEVCSLAFFPVKPKYPQTMIDVFRKLTEFEPLRCEAAGVKMHPAVGIHPRCIPPDYEFVLGYLEEGEWVAFGEIGLELVTDEEIEVLKSQLELAKRMDVPCIIHTPRGNKLKATRKTLEILESLDFPADLAVIDHVNFETLDMVLETEYWIGLTVQPGKLSAEDAARIVAEHGPERFMLNSDAGYRDVEITTVAEAAVKIEEAVGREEMEKVARENARKFLRVLELEHHHHHH” it was “failed”; in that of “MYFEIYKDAKGEYRWRLKAANHEIIAQGEGYTSKQNCQHAVDLLKSTTAATPVKEVLEHHHHHH”, “not failed”.
In the case of “MYFLKKIVNLFSSKIESEDNNVKKDDLTQPRKQSPEARKRRNRRIIFWLIILLIIGTIIGVIIYFSVRKEYDNVIVKSAQTEVVNNKKVLYLNTIRPNSTQITRYTIDEDQLLTARVNILNNTNFQIISNASSLGLSRISFNIVREGVEKFKLGETNIYAPISGNTNNQWNWLTSIITQNAGIPSSGFNPQVIISPLISIIFFIIFLYIILRVSKAQSDSLLGTNKANAKLTKSGVRFSDVAGIAEVKEELIEIVDFLKEPKKYVAAGARIPKGVMLYGPPGTGKTLIAKAVAGEANVPFFQTTGSSFEDTFVGVGARRVRELFEKARKSAPAIIFIDEIDSVAKKRGNSLTAVQDQTINQLLSELDGFDTSSGVIVMAATNRLDTLDDAILRPGRFDRQISVNLPDILEREQILRIHSRNKNLSAKVSLEDIARRTAGFSGAQLENVLNEAALLSVRDKATSIHMNHLDEAIDRVIAGPSRPNKVISEREREQVSYHEAGHALIGLYSPGADVVQKITIVARGRAAGYTLQTPERNENILQNKTELISRVRTALGGRAAEELIYGPNEITTGAANDFYKITNIVRAMVASFGMTDVGLTQYIATEGVDNPYRNSYSEQTALAIDIEIEKIIQREYKIVKEMINEHREELELIVQTLLELETILKPQIDYIHQYKQLPPEVIANKNKREASQKQANSSVEEAKVVDDEESIKDKEKDQKSN” it was “failed”; in that of “MYGGAGLYKFDKLSDWMVYLDRLSKDKPVEEGWTATVFLCIRQSDKRMIGICNVRHHLNSLGLLNVSGHIGYSIRPDERKKGYAKVQLRLALLEAKKLGIDKVLVTCADWNIGSERTILANGGVYEDSRLDESTGNMMKRYWINVTERNSI”, “failed”; in that of “MYHGMNPSNGDGFLEQQQQQQQPQSPQRLLAVILWFQLALCFGPAQLTGGFDDLQVCADPGIPENGFRTPSGGVFFEGSVARFHCQDGFKLKGATKRLCLKHFNGTLGWIPSDNSICVQEDCRIPQIEDAEIHNKTYRHGEKLIITCHEGFKIRYPDLHNMVSLCRDDGTWNNLPICQGCLRPLASSNGYVNISELQTSFPVGTVISYRCFPGFKLDGSAYLECLQNLIWSSSPPRCLALEAQVCPLPPMVSHGDFVCHPRPCERYNHGTVVEFYCDPGYSLTSDYKYITCQYGEWFPSYQVYCIKSEQTWPSTHETLLTTWKIVAFTATSVLLVLLLVILARMFQTKFKAHFPPRGPPRSSSSDPDFVVVDGVPVMLPSYDEAVSGGLSALGPGYMASVGQGCPLPVDDQSPPAYPGSGDTDTGPGESETCDSVSGSSELLQSLYSPPRCQESTHPASDNPDIIASTAEEVASTSPGIDIADEIPLMEEDP”, “failed”.
On to “MYIKKIVIGLLFVTLVGCSSSPDTEETKEKILIKTNNYSDLIIFYKNQLKVSEDPYTREKLAQAYLDSGDPDSALFAIQYLNEDDDSRSISSFLIEANAQLECGMLEPALDTVNRVYKLNEDNPEIENLLGVIYASKRDLDKSRHYFNLARKHLYSDITIKNNLAILNIIEGKYDQAVKLLLPIYMSNKNDALVQANLMLAMAKAGDLEFMEKVLSPQFSKQEIERRYSILKNTESHRDDTNLFGAD”, for which the protein production result was “failed”.
In the case of “MYINHAAEMLLCNSSVVVRCRATRGVSESLARPGGVTMHKRLTEETHHSAGSPEQPEIAGLHRELAEARQALETLYAALDNVDAGLLILNEELRAVYSNPVLHVMFRANSAEEIRQNRPLYAEMLAASAQAVAVNLEDYVSRRLAWVQSGDPKPMDLAMTDGTALRCHLAVLPGGGRMLIYSDVTDIVRNAEELERLATTDGMTGVYNRRHFLTLADREWSRARRYERPMSFLMIDIDYFKAINDGFGHQVGDEMIVHLARLARDCKRDCDVLARLGGEEFALLLPETDLAQAEVVAERLRREVAGNALVVASHAIPATVSIGVATALPGMKDVSDLMKAADQALYDAKHAGRNRVICRACHDPAPTLVPALTPRCEAATMR” it was “failed”; in that of “MYIPKYFKVTNAEEIWNFVQENSFGTVVTTEQGKPIATHLPLGFNKKDDHYYITGHFAYGNPQWRTFEACEDVLVMFQGPHAYISSSWYSRENVPTWNYQAVHMYGKASMLEKDELAEELTIMLEQKTPTQAFSVLWDKLSPKLLESELKGIVGFKIKVEDIQAAYKLSQN”, “failed”; in that of “MYIVIAGGGEMGGELARALEKTHDVVVIDRNPQARERFASWDVKVVVGGATDPDTLREAGVDRADLFVASTDSDEINLLASLLAKGLGAKEAFCFVGKGGYVEVLTDPRTAEILGTRIDRVLWPQRAMAREIVEVILVPWAVDTEVLAGGRLRFVEYRVKEGGEYVHRLLSGEKWPEGVLLAGVVREGTFLSFAHPEFPELILEPGDKLLFVATQKAFSELAAYFTEGPGVRRVMVIGGGNVGFMVAQGLLKRRVEVVIVERNAERCQWLSEELPGALVIQGDGTDIELLEAEGMAEADAVVAVTDHDEKNLLASLLAKQMGVRKVITRVSRSETRRLFEQVGIDLALTPRQAAVREVLDWIGPENVEHIATLEESIEVLEVLVSEGAAPKALRDLVRPDAVPVALERDHRIFLYEEGLGLLPGDRLYLVAAREVADEVLAPFFPE”, “failed”.
As to “MYIVNSNKSRGSSVERYIVSRLRDKGFAVIRAPASGSKRKDHVPDIIALKSGVIILIEVKSRKNGQKIYIEKEQAEGIREFAKRSGGELFLGVKLPKMLRFIKFDMLRQTEGGNYAIDLETVEKGMELEDLVRYVESKISRTLDSFL”, the protein production result is “not failed”.
The entry for “MYIVNSYTLAIIFCFITMICWGSWGNTQKLASKNWRYELYYWDYTIGILLFALLLVFTLGSFGDSGRGFLEDIQQVEAAYIASALIGGAIFNASNILLSASVSIAGMAVAFPLGVGLALVLGVFINYFSSPKGDPFWLFTGVVLIVIAIICNGIAAGKNQKAGTNNSKKGIILAAIAGILMSFFYRFVAAAMDLNNFESPTTGMATPYTAFFIFAIGIFLSNFLFNTLVMKRPFVGLPVTYKEYFAGKASTHMVGILGGCIWGLGTALSYIAAGKAGAAISYALGQGAPMIAALWGVFIWKEFTGSSKATNRLLGVMFILFILGLTFIVISGGS” is “failed”.
In the case of “MYKLDLPTLMDAFHKVFHVSMLRKCITHQENVISEPPPDLLENMMIVGMLIPNLLGVSSEMVGR” it was “failed”.
For the sequence “MYKLVLIRHGESTWNKENRFTGWVDVDLTEQGNREARQAGQLLKEAGYTFDIAYTSVLKRAIRTLWHVQDQMDLMYVPVVHSWRLNERHYGALSGLNKAETAAKYGDEQVLVWRRSYDTPPPALEPGDERAPYADPRYAKVPREQLPLTECLKDTVARVLPLWNESIAPAVKAGKQVLIAAHGNSLRALIKYLDGISDADIVGLNIPNGVPLVYELDESLTPIRHYYLGDQEAIAKAQAAVAQQGKSAA”, the protein production entry is recorded as “not failed”.
In the case of “MYLKARQDELTESTIQSQEYRLEAFEQFCREEGIENLNDLSGRDLYAYRVWRREGNGKGRDEIEPITLRGQLATVRSFLRFAAEVDAVPEDLRTKVPLPTISNAGEVSASTLDPERADVILDYLQMYKYASRVHVIALLLWHTGARMGAIRGLDIDDCELEQDNPGIQFVHRPQTDTPLKNGEKGQRWNAISDHVANVLQDYIDGPREPVFDEHGRRPLVTTPQGRASTSTFRTTMYRVTRPCWRGAECPHDRDPEECEATSNRKASTCPSARSPHDVRSGRVTAYRREDVPRRVVSDRLNASDQILDKHYDRRGEREKSEQRRDYLPEV” it was “failed”; in that of “MYLKRSDGPSPGTLSLAARLTVLSTLATTGVLLFAIVFQFLALVSDLEFEDNDFIIDKIRVIEAIIVRYPEDRVHLEQEVQWEGSMREDSRYLVRIADARKNIIMETRGMDRIAPPAMFPRPARDTHAIGRGKKLKTPEGRVYLVNAAWTDGGRAPDSRQIQVALDVTEEEEMLEGYKQKMAFVFLAGLFLSAGLNVVVVRRGLRPLVQLTETAGRIDVTTLHERIDARVWPRELARFAAAFDAMLTRLESSFERLESSSANLAHEIRTPLNILRGEAEVTLSRARSPEEYRRVIESSLEEYERLSRLIDNILFLARAEQRIEPVPLDAGHELELLQDYYGTLAEEKGIAISCTGEGTISADPLLFQRAVGNVLSNAIRYTPAGGTITVSIDRADDGAALLTVIDTGIGISADDLPRVFDRFYRSSEARTLNAQGTGLGLAIVRSIMELHRGSVTIDSAPGRGTAVTLRFPLASQ”, “failed”.
In the case of “MYLRRFYDEGLAHASYLVGCQETGEACVIDPARDVEPYLLTAKREGLRIVAALETHIHADFVSGAREMADRAGAAICVSDEGPPEWKSEYVKAYPHRLLKDGDELHFGNVRIVVMHTPGHTPEHVSYLLYDGKTSPDVPMALFSGDFVFVGDVGRPDLLERVAGESGSSEALARQMFRSLRKFEALPDHVQVLPAHGAGSACGKALGAVPSSTVGYEKLVNWALQHKDEDAFVQALLAGQPEAPIYFARMKLVNKVGPRLLAELGAPERVDLPPERVRAWREGGVVLDVRPADAFAKRHLAGSLNIPWNKSFVTWAGWLLPADRPIHLLAADAIAPDVIRALRSIGIDDVVDWTDPAAVDRAAPDDVASYANVSPDEVRGALAQQGLWLLDVRNVDEWAGGHLPQAHHIPLSKLAAHIHDVPRDGSVCVYCRTGGRSAIAASLLRAHGVGDVRNMVGGYEAWRGKGFPVEA” it was “not failed”.
